# Measurements published in IntAct's records for PubMed 15634206.
# B1: Regulatory protein NPR4 (Arabidopsis thaliana (Mouse-ear cress)), Q5ICL9 (parent)
# chain: MAATAIEPSSSISFTSSHLSNPSPVVTTYHSAANLEELSSNLEQLLTNPDCDYTDAEIIIEEEANPVSVHRCVLAARSKFFLDLFKKDKDSSEKKPKYQMKDLLPYGNVGREAFLHFLSYIYTGRLKPFPIEVSTCVDSVCAHDSCKPAIDFAVELMYASFVFQIPDLVSSFQRKLRNYVEKSLVENVLPILLVAFHCDLTQLLDQCIERVARSDLDRFCIEKELPLEVLEKIKQLRVKSVNIPEVEDKSIERTGKVLKALDSDDVELVKLLLTESDITLDQANGLHYAVAYSDPKVVTQVLDLDMADVNFRNSRGYTVLHIAAMRREPTIIIPLIQKGANASDFTFDGRSAVNICRRLTRPKDYHTKTSRKEPSKYRLCIDILEREIRRNPLVSGDTPTCSHSMPEDLQMRLLYLEKRVGLAQLFFPAEANVAMDVANVEGTSECTGLLTPPPSNDTTENLGKVDLNETPYVQTKRMLTRMKALMKTVETGRRYFPSCYEVLDKYMDQYMDEEIPDMSYPEKGTVKERRQKRMRYNELKNDVKKAYSKDKVARSCLSSSSPASSLREALENPT
# partner: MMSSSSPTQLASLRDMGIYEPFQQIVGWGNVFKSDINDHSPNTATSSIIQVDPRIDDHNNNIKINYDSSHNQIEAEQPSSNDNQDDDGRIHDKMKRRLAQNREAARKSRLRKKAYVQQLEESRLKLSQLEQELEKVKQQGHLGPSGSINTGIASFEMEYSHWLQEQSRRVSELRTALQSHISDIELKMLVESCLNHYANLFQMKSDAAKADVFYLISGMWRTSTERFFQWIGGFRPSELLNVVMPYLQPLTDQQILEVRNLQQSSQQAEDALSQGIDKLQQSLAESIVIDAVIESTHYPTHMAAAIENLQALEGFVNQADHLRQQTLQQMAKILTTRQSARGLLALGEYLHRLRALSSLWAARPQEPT
# B2: Regulatory protein NPR4 (Arabidopsis thaliana (Mouse-ear cress)), Q5ICL9 (parent)
# chain: B1 chain
# partner: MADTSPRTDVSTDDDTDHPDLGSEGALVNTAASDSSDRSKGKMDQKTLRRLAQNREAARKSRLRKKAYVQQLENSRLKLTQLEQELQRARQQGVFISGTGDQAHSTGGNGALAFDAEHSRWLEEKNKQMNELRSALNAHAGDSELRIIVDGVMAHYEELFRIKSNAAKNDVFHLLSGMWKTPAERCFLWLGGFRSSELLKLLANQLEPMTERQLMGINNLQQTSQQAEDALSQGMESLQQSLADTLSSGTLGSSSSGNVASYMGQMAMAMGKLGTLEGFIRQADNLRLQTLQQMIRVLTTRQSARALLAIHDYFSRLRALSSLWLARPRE
# Variants of: B1
# Conditions: with tga7_arath TGA7, Q93ZE2
row,effect of a mutation on the interaction,Variant
1,disrupting interaction,H321Y

# Variants of: B2
# Conditions: with tga2_arath TGA2, P43273
row,effect of a mutation on the interaction,Variant
1,disrupting interaction,H321Y
